Assay [1] deals with T1, human gc chain (common gamma chain of cytokine receptors) on the cell surface (human, UniProt P31785 23-369).
T1 sequence (looked up): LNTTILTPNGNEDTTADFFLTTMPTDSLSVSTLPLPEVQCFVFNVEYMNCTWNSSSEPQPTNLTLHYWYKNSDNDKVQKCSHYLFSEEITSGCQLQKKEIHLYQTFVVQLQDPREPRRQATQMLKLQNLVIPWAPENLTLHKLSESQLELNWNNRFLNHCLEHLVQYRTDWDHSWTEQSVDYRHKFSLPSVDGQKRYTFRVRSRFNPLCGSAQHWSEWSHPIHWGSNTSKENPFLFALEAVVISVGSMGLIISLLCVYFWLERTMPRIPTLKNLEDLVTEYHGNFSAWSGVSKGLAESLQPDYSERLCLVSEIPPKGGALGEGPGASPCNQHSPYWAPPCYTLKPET
Briefly: cell-based or functional assay.

Assay [2] concerns the target T2, human gc chain mutant, VIP replaced by Ala (interdomain residues), myc-tagged, on COS-7 cells (human, UniProt P31785 23-369).
T2 construct: whole, on cells; not shown: 9 amino acid myc tag at the 5' end of the construct
T2 sequence (looked up): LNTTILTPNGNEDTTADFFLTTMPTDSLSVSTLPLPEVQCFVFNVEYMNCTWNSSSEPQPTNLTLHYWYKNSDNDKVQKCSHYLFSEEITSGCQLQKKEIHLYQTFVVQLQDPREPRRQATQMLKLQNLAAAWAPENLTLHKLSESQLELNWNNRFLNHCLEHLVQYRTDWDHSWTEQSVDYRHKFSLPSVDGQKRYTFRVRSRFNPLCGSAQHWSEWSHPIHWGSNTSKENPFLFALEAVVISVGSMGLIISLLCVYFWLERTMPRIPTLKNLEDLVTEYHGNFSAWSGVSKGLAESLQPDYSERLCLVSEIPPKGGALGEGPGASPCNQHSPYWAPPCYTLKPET
Nature of the assay: staining of transfected COS-7 cells, FACS.

Assay [3] addresses T3, human gc chain mutant, ESQ replaced by Ala (Domain 2 Loop AB), myc-tagged, on COS-7 cells (human, UniProt P31785 23-369).
T3 construct: whole, on cells; not shown: 9 amino acid myc tag at the 5' end of the construct
T3 sequence (looked up): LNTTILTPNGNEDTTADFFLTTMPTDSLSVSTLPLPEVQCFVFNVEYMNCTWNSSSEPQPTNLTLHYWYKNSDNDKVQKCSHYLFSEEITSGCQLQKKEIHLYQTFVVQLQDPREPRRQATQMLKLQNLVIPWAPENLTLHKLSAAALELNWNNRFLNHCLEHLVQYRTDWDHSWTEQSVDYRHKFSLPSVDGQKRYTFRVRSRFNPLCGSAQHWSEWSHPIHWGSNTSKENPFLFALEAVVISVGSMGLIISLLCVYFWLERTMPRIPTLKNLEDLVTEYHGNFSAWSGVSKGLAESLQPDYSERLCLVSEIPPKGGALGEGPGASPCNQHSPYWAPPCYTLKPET
Nature of the assay: staining of transfected COS-7 cells, FACS.

Assay [4] has as its target T4, human gc chain mutant, LEH replaced by Ala (Domain 2 Loop BC), myc-tagged, on COS-7 cells (human, UniProt P31785 23-369).
T4 construct: whole, on cells; not shown: 9 amino acid myc tag at the 5' end of the construct
T4 sequence (looked up): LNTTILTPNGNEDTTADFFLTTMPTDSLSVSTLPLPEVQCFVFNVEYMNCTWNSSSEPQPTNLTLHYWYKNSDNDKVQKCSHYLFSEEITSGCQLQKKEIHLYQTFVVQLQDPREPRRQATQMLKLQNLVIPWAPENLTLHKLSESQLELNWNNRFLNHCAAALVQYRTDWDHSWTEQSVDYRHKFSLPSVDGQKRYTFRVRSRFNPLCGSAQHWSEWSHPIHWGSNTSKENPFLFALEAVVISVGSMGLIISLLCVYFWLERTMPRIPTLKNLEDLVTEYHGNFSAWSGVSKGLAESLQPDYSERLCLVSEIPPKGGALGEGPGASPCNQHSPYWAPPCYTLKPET
Briefly: staining of transfected COS-7 cells, FACS.

From patent US20020028202A1 (Biogen, published 2002) come the findings set out here.

B1: CP.B8 monoclonal antibody (murine anti-human gc chain, hybridoma ATCC HB-12107) (antibody, V domains shown)
VH: LQESGPGLVAPSQSLSITCTVSGFSLTSYGVHWVRQPPGKGLEWLGVIWAGGSTNYNSALMSRLNINRDNSKSQIFLKMNSLQTDDTAIYYCAREGSTVDSMDYWGQGTTVT
VL: DIVMTQSHKFMSTSVGDSITITCKASQDVTTAVAWYQQKPGQSPKLLIYWASTRHTGVPDRFTGSGSGTDYTLTISSVQAEDLALYYCQQHYITPWTFGGGTKLEI
notes: Used unconjugated and biotin-conjugated; also called CP.B8 mAb; mAb CP.B8
For the molecule B1, the “inhibition of IL-2-induced T cell proliferation, 73 pM IL-2, mAb at 100 ug/ml, relative to MOPC21” value in assay [1] was determined as 51%. Also, the “inhibition of IL-2-induced T cell proliferation, 219 pM IL-2, mAb at 100 ug/ml, relative to MOPC21” value in assay [1] amounted to 44%. The entries for the “% binding to mutant gc chain/wildtype gc chain” value in assay [2], in assay [3] and in assay [4] were 21%, 75% and 0%, respectively.
